Test results reported in paper PMC6346101.

Tests used:
[1] = biological target: Influenza D virus nucleoprotein, strain D/bovine/France/2986/2012 (Influenza D virus, strain D/bovine/France/2986/2012); assay: negative-stain electron microscopy
[2] = biological target: Influenza D virus nucleoprotein, strain D/bovine/France/2986/2012 (Influenza D virus, strain D/bovine/France/2986/2012); assay: SEC-MALLS
[3] = biological target: His-tagged D/NP_(TAIL) (505-D/NP-552) (Influenza D virus, strain D/bovine/France/2986/2012); assay: thermal shift assay (Thermofluor)
[4] = biological target: Biotinylated D/NP_(TAIL) fused to a biotinylation motif (Influenza D virus, strain D/bovine/France/2986/2012); assay: SPR; Biacore 3000; […]; 10 mM Hepes pH 7.4, 150 mM NaCl, 0.05% Tween 20; […]

human importin-α7 without its IBB domain (amino-acids 58 to 536), O60684 58-536 (domain or fragment; other documents disagree on this pair), sequence (O60684 58-536): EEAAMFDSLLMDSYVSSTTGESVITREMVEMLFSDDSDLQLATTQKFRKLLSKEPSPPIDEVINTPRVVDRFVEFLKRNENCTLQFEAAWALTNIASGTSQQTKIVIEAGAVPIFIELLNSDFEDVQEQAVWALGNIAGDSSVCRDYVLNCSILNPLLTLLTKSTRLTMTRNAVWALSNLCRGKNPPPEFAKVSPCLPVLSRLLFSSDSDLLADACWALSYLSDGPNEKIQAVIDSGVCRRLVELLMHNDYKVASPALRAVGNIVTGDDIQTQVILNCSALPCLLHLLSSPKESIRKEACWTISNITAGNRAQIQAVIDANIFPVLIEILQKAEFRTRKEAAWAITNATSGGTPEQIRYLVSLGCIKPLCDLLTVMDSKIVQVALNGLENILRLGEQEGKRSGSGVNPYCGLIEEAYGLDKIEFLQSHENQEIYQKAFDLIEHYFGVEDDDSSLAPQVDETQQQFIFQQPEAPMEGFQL

| Substance | stoichiometry N [1] | stoichiometry N [2] | rise of the melting temperature [3] | Kd [4] | stoichiometry N (importin-α7 per D/NP tetramer) [2] |
| --- | --- | --- | --- | --- | --- |
| Influenza D virus nucleoprotein, strain D/bovine/France/2986/2012 (from UniProt A0A0E3VZU8 1-552) (natural protein) | 4 | 4 | – | – | – |
| human importin-α7 without its IBB domain (amino-acids 58 to 536), O60684 58-536 (domain or fragment; other documents disagree on this pair) | – | – | 5 °C | 100 nM | 4 |
